Results reported in article PMC9158284, “N-terminally truncated Aβ4-x proteoforms and their relevance for Alzheimer’s pathophysiology” (Translational Neurodegeneration, 2022).
“Also recorded” adds a separate entry of the source.

Experiments:
[1] = design: species or system C57BL/6 mice; conditions: mouse, in vivo
Protocol: (§1) One hundred micrograms of either full-length or truncated Aβ species in both monomeric and oligomeric forms were radiolabeled using 1,3,4,6-tetrachloro-3α-6α-diphenylglycoluril pre-coated tubes (Iodogen, ThermoFisher Scientific/Pierce, Waltham, MA) and Na^125I (1 mCi, PerkinElmer, Waltham, MA), following the manufacturer’s specifications. All radiolabeling procedures were carried out for 20 min in a Standalone Radioiodine IH-350 hood (Atlantic Nuclear, Rockland, MA). Following removal of free Iodine using a desalting polyacrylamide column (D-salt, cut off 1.8 kDa, Pierce), radioactivity of labeled Aβ was assessed in a Perkin Elmer 1470 automated gamma counter (Perkin Elmer, Waltham, MA). Under these experimental conditions, [^125I] incorporation rendered specific activities in the range of 3–5 µCi/µg with > 98% TCA precipitable counts. Aggregation status of the [^125I]-labeled Aβ monomeric and oligomeric species was analyzed by autoradiography following 16.5% SDS–polyacrylamide gel electrophoresis and subsequent direct exposure to HyBlot CL film (Denville Scientific Inc., South Plainfield, NJ), as we previously described. If not immediately used for the clearance experiments, [^125I]Aβ oligomeric peptides were stored at -80 °C and used within a week to prevent further oligomerization and minimize radiolysis.
C57BL/6 mice (Taconic Biosciences, Hudson, NY) were intracerebrally injected with the different Aβ preparations following institutionally approved IACUC protocols, essentially as previously reported by our laboratory. […] Radioactivity remaining in the whole brain was assessed in the Perkin Elmer 1470 γ-counter.

[2] = Electron microscopy after negative staining; format: physicochemical; conditions: 24-h incubation/oligomerization
Protocol: All synthetic homologues were incubated at a concentration of 1 mg/ml in 1,1,1,3,3,3,hexafluoro-isopropanol (HFIP; Sigma Chemical Co., St. Louis, MO) for 4 days, a pretreatment that breaks down β-sheet structures and disrupts hydrophobic forces, leading to monodisperse amyloid subunit preparations [67]. The HFIP-pretreated peptides were lyophilized and subsequently reconstituted to 1 mM in 1% NH4OH followed by further dilution in phosphate-buffered saline (PBS) to a final concentration of 50 µM and immediately used for radioiodination and direct intracerebral injection. […] The resulting oligomers were immediately used for radiolabeling and intracerebral injections.
Peptide oligomerization was also monitored by electron microscopy, as previously described [38, 66, 71]. Five microliters of either monomeric or oligomeric preparations of the different Aβ peptides were placed onto carbon-coated 400 mesh Cu/Rh grids (Ted Pella, Inc., Redding, CA) and stained with 1% uranyl acetate in distilled water (Polysciences, Inc., Warrington, PA). The stained grids were examined in a Philips CM-12 transmission electron microscope and photographed with a Gatan (4 k × 2.7 k) digital camera at the Image Core Facility of the Skirball Institute of Biomedical Medicine, NYU School of Medicine, as described [66, 71, 72].

[3] = after 24-h incubation at 37 °C, 50 μM in 10 mM phosphate buffer pH 7.4, 150 mM NaF; mean of 15 scans
Protocol: Changes in the secondary structure of the different Aβ peptides induced by the oligomerization procedure were estimated by CD spectroscopy, as previously described [66]. The HFIP-pretreated peptides were solubilized in deionized water as above, followed by further dilution to a final concentration of 50 μM in 10 mM phosphate buffer, pH 7.4, containing 150 mM sodium fluoride. Spectra in the far-ultraviolet (wavelength range: 190–260 nm; band-width 1 nm; intervals 1 nm; scan rate 60 nm/min) were recorded for each peptide immediately after solubilization and following 24-h incubation at 37 °C in a Jasco J-720 spectropolarimeter (Jasco Inc., Easton, MD) using a 1-mm-path quartz cell. For each sample, 15 consecutive spectra were obtained and averaged, the baseline reading was subtracted, and results were expressed in terms of molar ellipticity (deg × cm^2/dmol).

[4] = Thioflavin T binding assay; format: physicochemical; conditions: after 24-h incubation at 37 °C under physiological salt concentrations; 50 mM Tris–HCl pH 8.5; ex 435 / em 490 nm; three independent experiments
Protocol: Aggregation of the different Aβ homologues was also monitored by Thioflavin T binding, following previously described protocols. Briefly, 6 μl aliquots from each peptide aggregation time point were added to 184 μl of 50 mM Tris–HCl buffer, pH 8.5, and 10 µl of 0.1 mM thioflavin T (Sigma). Fluorescence was recorded for 300 s in an LS-50B spectrometer (Perkin Elmer, Waltham, MA) with a slit width of 10 nm and excitation and emission wavelengths of 435 and 490 nm, respectively.

[5] = Autoradiography after SDS-polyacrylamide gel electrophoresis of [125I]-labeled Aβ preparations; format: physicochemical; conditions: [125I]-labeled 24-h incubated preparations, 16.5% SDS–polyacrylamide gel
Protocol: as §1

[6] = mouse, in vivo; cited from earlier work
Description: In this sense, it is important to emphasize that the cerebral microvasculature, a main player in the regulation of Aβ homeostasis, suffers ...

## Aβ1-34: Synthetic homologue of amyloid-β C-terminally truncated at Leu34
[1]
  Brain clearance, percentage cleared relative to the total injected radioactivity, oligomeric (24-h incubated) preparation: 86% ± 6%
[2]
  Protofibrillar assemblies after the aggregation procedure, length (electron microscopy): did not form protofibrilar elements
[3]
  Secondary structure by CD upon oligomerization: maintained the same unordered conformation before and after
[4]
  Thioflavin T binding (fluorescence) of oligomerized peptides: negligible fluorescence signal
[5]
  SDS-resistant oligomeric species of 24-h incubated preparations: did not oligomerize within the 24-h experimental timeframe

## Aβ1-40: Synthetic homologue of full-length amyloid-β 1-40
[6]
  Percentage cleared from brain, oligomeric form: < 40%
[3]
  Secondary structure by CD upon oligomerization: intermediate mixture of β-sheet and unordered structures
[4]
  Thioflavin T binding (fluorescence) of oligomerized peptides: low-to-intermediate thioflavin T binding activity
[5]
  SDS-resistant oligomeric species of 24-h incubated preparations: dimeric, trimeric and tetrameric assemblies

## Aβ1-42: Synthetic homologue of full-length amyloid-β 1-42
[1]
  Brain clearance, percentage cleared relative to the total injected radioactivity, oligomeric (24-h incubated) preparation: 61% ± 4%
[3]
  Secondary structure by CD upon oligomerization: this type of secondary structure became more relevant
[4]
  Thioflavin T binding (fluorescence) of oligomerized peptides: highest thioflavin T binding
[5]
  SDS-resistant oligomeric species of 24-h incubated preparations: from tetramers to dodecamers

## Aβ4-40: Synthetic homologue of Aβ1-40 N-terminally truncated at Phe4
[1]
  Brain clearance, percentage cleared relative to the total injected radioactivity, oligomeric (24-h incubated) preparation: 46% ± 5%
[3]
  Secondary structure by CD upon oligomerization: predominant unstructured random conformations
[4]
  Thioflavin T binding (fluorescence) of oligomerized peptides: low-to-intermediate thioflavin T binding activity; also recorded: higher thioflavin-binding activity than the full-length counterpart Aβ1-40
[5]
  SDS-resistant oligomeric species of 24-h incubated preparations: from tetramers to dodecamers
